Reference: patent US6258776A, “Calcium-regulated kinase” (priority 1997, dated 2001)

What was measured:
[1] = test system: M960618 melanoma cells (Ndr activity); assay: W-7 effect on Ndr activity in S100B-positive melanoma cells; type: cell-based; conditions: Homo sapiens, 1.25 h; read-out: reduction of Ndr activity
[2] = test system: S100 proteins, including S100B; conditions: cited from earlier work
PP2A = conditions: concentrations used in cells (okadaic acid 1 μM, cyclosporin A 1 μM); cited from earlier work
HA-Ndr = assay: in vitro incubation of immunoprecipitated HA-Ndr with PP2A; type: biochemical; conditions: PP2A plus 100 nM okadaic acid
Procedure: In order to provide evidence that PP2A directly interacts with and thereby affects Ndr activity, HA-Ndr is immunoprecipitated from cells treated with 20 μM A23187 or with solvent alone for 5 min. In parallel, HA-Ndr is immunoprecipitated from cells treated with 1 μM okadaic acid or solvent alone ("Control") for 1 h. Each immunoprecipitate is then incubated in vitro for 1 h with either buffer alone, with purified PP2A (dimeric form consisting of catalytic subunit and 65 kDa regulatory subunit) or with PP2A plus 100 nM okadaic acid. Thereafter, the immunoprecipitates are washed and assayed for Ndr peptide kinase activity as described in Example 5.

HA-Ndr WT = conditions: 1 μM, 1 h
Procedure: COS-1 cells expressing HA-Ndr WT (as in Example 5) are treated either with solvent alone (Control) or with a panel of cell permeable protein phosphatase inhibitors. The cells are then extracted, HA-Ndr is immunoprecipitated with the anti-HA mAb 12CA5, and the kinase activity of Ndr measured as before, using the peptide substrate.

[3] = test system: protein phosphatase 1 (PP1); conditions: concentrations used in cells; cited from earlier work
S100B-Ndr = assay: inhibition of binding of S100B to Ndr
GST-Ndr [4] = biological target: T1, GST-Ndr (Homo sapiens, UniProt Q15208); assay: Ndr autophosphorylation assay; type: biochemical
T1 construct: made in house
T1 sequence (Q15208 whole entry): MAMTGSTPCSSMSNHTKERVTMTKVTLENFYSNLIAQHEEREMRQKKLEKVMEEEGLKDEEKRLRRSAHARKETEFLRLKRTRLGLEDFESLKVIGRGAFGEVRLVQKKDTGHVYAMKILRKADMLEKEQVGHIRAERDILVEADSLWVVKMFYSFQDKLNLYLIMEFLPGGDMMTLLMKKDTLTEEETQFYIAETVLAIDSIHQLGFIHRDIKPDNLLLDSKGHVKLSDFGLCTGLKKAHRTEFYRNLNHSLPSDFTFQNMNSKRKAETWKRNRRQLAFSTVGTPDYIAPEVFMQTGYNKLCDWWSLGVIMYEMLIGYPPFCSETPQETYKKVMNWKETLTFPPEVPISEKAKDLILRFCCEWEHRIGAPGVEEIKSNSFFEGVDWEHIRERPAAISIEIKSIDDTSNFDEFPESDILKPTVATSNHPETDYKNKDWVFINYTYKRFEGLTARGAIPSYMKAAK
Procedure: In immune complex kinase assays and autophosphorylation assays (see below), COS-1 cells are transfected as described above or with pECE-Ndr-K118A. After 72 h, cells are washed with ice-cold PBS and lysed in lysis buffer (20 mM Tris-HCl pH 8.0, 150 mM NaCl, 1% (v/v) NP-40, 10% (v/v) glycerol, 5 mM EDTA, 0.5 mM EGTA, 0.5 mM phenylmethyl-sulfonyl fluoride, 4 μM leupeptin, 1 mM benzamidine, 1 μM microcystin and 1 mM Na3 VO4). Lysates are centrifuged at 14,000 g for 20 min. Duplicate aliquots of supernatant (250 μg, 2.5 mg/ml) are incubated for 2 h at 0° C. with 10 μg/ml Ab^1-465. Immune complexes are precipitated by addition of 2 μl protein A-Sepharose (Pharmacia) and mixing for 1 h. The beads are then washed twice with lysis buffer, once with lysis buffer containing 1 M NaCl, with lysis buffer again, and finally twice with 20 mM Tris-HCl pH 7.5. […] After 60 min at 30° C., phosphate incorporation into the peptide is quantitated as described above.
The proteins are added together with Ca^2+ into GST-N dr peptide kinase assays. […] The increased kinase activity observed in the presence of S100A1 and S100B is not due to contaminating kinase activity, because no activity is recorded when kinase-negative GST-Ndr, containing a point mutation (Lys^118→Ala) in the ATP binding pocket, is used in place of wild-type GST-Ndr. […]

GST-Ndr [5] = biological target: T1, GST-Ndr; assay: preincubation of immobilised GST-Ndr followed by peptide kinase assay; type: biochemical
Procedure: Activation of Ndr by S100B appears to be independent of kinase autophosphorylation. However, increased autophosphorylation is observed: GST-Ndr is immobilised on agarose and preincubated with or without Ca^2+ -S100B, in the presence or absence of Mg-ATP (to either allow or not allow autophosphorylation). The agarose beads are then washed and assayed for Ndr activity as set out herein with radiolabelled ATP and peptide substrate, and in the presence or absence of Ca^2+ -S100B. Preincubation of GST-Ndr with Mg-ATP alone increases its peptide kinase activity, showing that autophosphorylation activates Ndr. […] Preincubation with Ca^2+ S100B alone has no effect, because activation by Ca^2+ -S100B in the preincubation step is mediated by Ndr autophosphorylation.
Ca^2+ -S100B increases the rate Ndr autophosphorylation by 2.5-fold, and it increases autophosphorylation-dependent Ndr activation by 2-fold. However, the total activation of Ndr by Ca^2+ -S100B is larger than this (5- to 10-fold). Thus, the increased autophosphorylation of Ndr caused by Ca^2+ -S100B is not by itself sufficient to account for Ndr activation. In addition, Ca^2+ -S100B probably stimulates Ndr kinase activity directly, in an autophosphorylation-independent manner.

Ndr = Ndr activity in cell lines with and without S100B expression; type: cell-based, human; conditions: p<0.05, two-tailed Students' t test
Procedure: COS cells are transfected with pECE-Ndr or with empty vector (pECE). 20 μg of these extracts are immunoprecipitated with anti-Ndr (which has been covalently cross-linked to protein A-Sepharose using dimethyl pimelimidate). 400 μg of extract from HeLa cells is immunoprecipitated in parallel. The immunoprecipitates are separated by SDS-PAGE and then immunoblotted using biotinylated anti-Ndr and streptavidin-peroxidase. […] A band of ~53 kDa is also present in HeLa and COS-1 cells and probably represents a proteolytic fragment of full-length Ndr.
Using the method described above, the 12 cell lines are analysed for Ndr abundance. The amount of Ndr (in ng per 400 μg cell extract) is quantitated by densitometry of the blots, and comparison with blots containing known amounts of GST-Ndr. The same cell lines are also assayed for the presence or absence of S100B, by immunoprecipitation of cell extracts with anti-S100B, followed by immunoblotting of the precipitates.

Ndr Δ1-84 = assay: immune complex kinase assay with S100B and Ca^2+, Ndr lacking amino terminal domain; type: biochemical, human
Procedure: (§1) In immune complex kinase assays and autophosphorylation assays (see below), COS-1 cells are transfected as described above or with pECE-Ndr-K118A. After 72 h, cells are washed with ice-cold PBS and lysed in lysis buffer (20 mM Tris-HCl pH 8.0, 150 mM NaCl, 1% (v/v) NP-40, 10% (v/v) glycerol, 5 mM EDTA, 0.5 mM EGTA, 0.5 mM phenylmethyl-sulfonyl fluoride, 4 μM leupeptin, 1 mM benzamidine, 1 μM microcystin and 1 mM Na3 VO4). Lysates are centrifuged at 14,000 g for 20 min. Duplicate aliquots of supernatant (250 μg, 2.5 mg/ml) are incubated for 2 h at 0° C. with 10 μg/ml Ab^1-465. Immune complexes are precipitated by addition of 2 μl protein A-Sepharose (Pharmacia) and mixing for 1 h. The beads are then washed twice with lysis buffer, once with lysis buffer containing 1 M NaCl, with lysis buffer again, and finally twice with 20 mM Tris-HCl pH 7.5. Beads are resuspended in 30 μl buffer containing 20 mM Tris-HCl pH 7.5, 10 mM MgCl2, 100 μM CaCl2, 1 mM dithiothreitol, 100 μM [γ-^32 P] ATP (0.5 μCi/μls), 1 mM Ndr substrate peptide ([…], SEQ. ID. No. 1), 1 μM cAMP-dependent protein kinase inhibitor peptide (PKI; purchased from Bachem, Bubendorf, Swit zerland), 4 μM leupeptin, 1 mM benzamidine, 1 μM microcystin and, in some assays, 20 μM bovine S100B. After 60 min at 30° C., phosphate incorporation into the peptide is quantitated as described above. […]

wild-type Ndr = assay: immune complex kinase assay with S100B and Ca^2+, wild-type Ndr; type: biochemical, human; conditions: Ca^2+ -S100B
Procedure: as §1

Ndr Δ65-81 = assay: immune complex kinase assay with S100B and Ca^2+, Ndr deletion of amino acids 65-81; type: biochemical, human
Procedure: as §1

GST-Ndr [6] = biological target: T1, GST-Ndr; assay: GST-Ndr peptide kinase assay with calcium-binding proteins; type: biochemical
Procedure: 1 μg GST-Ndr WT or GST-Ndr K118A, either in solution or immobilised on glutathione-agarose beads, is assayed in a 20 μl reaction containing 20 mM Tris-HCl pH 7.5, 5 mM MgCl2, 1 mM dithiothreitol, 100 μM [γ-^32 P] […] Reactions are supplemented with either 2 mM EGTA or various concentrations of CaCl2. Bovine CaM, bovine S100B (both from Sigma) or recombinant calcium-binding proteins. After incubation at 30° C. for 60 min, aliquots of the reaction are spotted on to P81 phosphocellulose paper and counted as above.
In brief, coding regions are cloned into the PGEMEX expression vector (Promega) and resultant plasmids used to transform E. coli BL-21 LysS cells. After induction, S100 proteins are purified by ammonium sulphate precipitation followed by Ca^2+ -dependent phenyl-Sepharose chromatography.
The proteins are added together with Ca^2+ into GST-N dr peptide kinase assays. The proteins tested comprised S100A1 (S100α), S100A2 (S100L), S100A4 (CAPL), S100A6 (calcyclin) and S100B (S100β); α-parvalbumin is included as a negative control.
In order to estimate the binding affinity of S100B for Ndr, kinase assays are performed in which GST-Ndr is mixed with various concentrations of purified bovine S100B homodimer, in the presence or absence of calcium.
To determine whether activation of Ndr by S100B occurs at physiological Ca^2+ concentrations, Ndr activity is assayed with or without added S100B over a range of Ca^2+ concentrations.

## NCCCCCCNS(=O)(=O)c1cccc2c(Cl)cccc12 [W-7]
[1]
  inhibition at 50 µM: ~80%
[2]
  binding to S100 proteins: binds to several S100 proteins, including S100B, in a Ca^2+ -dependent manner

## C=C1[C@@H](O)[C@@H]2O[C@]3(CC[C@H](/C=C/[C@@H](C)[C@@H]4CC(C)=C[C@@]5(O[C@H](C[C@@](C)(O)C(=O)O)CC[C@H]5O)O4)O3)CC[C@H]2O[C@@H]1[C@@H](O)C[C@H](C)[C@H]1O[C@@]2(CCCCO2)CC[C@H]1C [okadaic acid]
PP2A
  inhibition of intracellular PP2A: completely inhibits intracellular PP2A
HA-Ndr
  prevention of inactivation of HA-Ndr by PP2A: inactivation is prevented
HA-Ndr WT
  activation of Ndr: ~ 8 fold
[3]
  effect on PP1: does not affect protein phosphatase 1 (PP1)

## KRLRRSAHARKETEFLRLKRTRLGL [SEQ ID No.32]
S100B-Ndr
  inhibition of binding of S100B to Ndr: effectively inhibit binding of S100B to Ndr

B1: S100B: EF hand calcium-binding protein of the S100 family; bovine S100B homodimer or recombinant (protein, UniProt P02638 2-92, looked up)
Protein S100-B: SELEKAVVALIDVFHQYSGREGDKHKLKKSELKELINNELSHFLEEIKEQEVVDKVMETLDSDGDGECDFQEFMAFVAMITTACHEFFEHE
GST-Ndr [4]
  Ndr autophosphorylation: stimulated Ndr autophosphorylation
GST-Ndr [4]; Ca^2+ -S100B
  increase in rate of Ndr autophosphorylation: 2.5 fold
GST-Ndr [5]; Ca^2+ -S100B
  increase in autophosphorylation-dependent Ndr activation: 2 fold
GST-Ndr [5]; preincubation with Ca^2+ -S100B alone
  peptide kinase activity after preincubation: no effect
GST-Ndr [5]; preincubation with Mg-ATP and Ca^2+ -S100B
  peptide kinase activity after preincubation: even greater autoactivation of the peptide kinase activity
Ndr
  Ndr average specific activity, S100B-positive versus S100B-negative cell lines: ~ 2 fold
Ndr Δ1-84
  response to S100B: failed to respond to S100B
wild-type Ndr
  degree of activation of immunoprecipitated Ndr: ~ 2 fold
Ndr Δ65-81
  sensitivity to S100B: ablated its sensitivity to S100B
GST-Ndr [6]; 2 mM EGTA, without calcium
  maximal activation of Ndr: much lower
GST-Ndr [6]; absence of calcium
  activation of Ndr in the absence of calcium: partial activation of Ndr in the absence of calcium
GST-Ndr [6]; added together with Ca^2+, 60 min, 30° C.
  increase in Ndr kinase activity: 5-6 fold
GST-Ndr [6]; presence of calcium, bovine S100B homodimer
  maximal activation of Ndr: ~ 7 fold
